Measurements taken from the supplement of paper PMC9170038.

Tested on: MS2 coat protein
Test: apparent KD of MS2 coat protein; designed switch direction (-1 OFF switch, 1 ON switch): 1; higher = weaker reporter binding
How it was run: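 An oligonucleotide input, 200 uM small-molecule ligand, or no input was present during titration of SNAP-549-labelled MS2 coat protein, which was doubled from 0.7 or 1.5 nM to 3 µM. Designed RNA switches had been transcribed on Illumina chips by stalled E. coli RNA polymerase. Apparent KD per design is the median over clusters of curves fitted to normalised cluster fluorescence.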

[1] = input ligand: microRNA oligo, concentration not stated
[2] = Eterna round: R95, input ligand: microRNA oligo, concentration not stated

Row | Sequence | apparent KD of MS2 coat protein (input ligand: FMN 200 uM) [nM] | apparent KD of MS2 coat protein [1] [nM] | apparent KD of MS2 coat protein (input ligand: none) [nM] | apparent KD of MS2 coat protein [2] [nM] | apparent KD of MS2 coat protein (Eterna round: R95, input ligand: FMN 200 uM) [nM] | apparent KD of MS2 coat protein (Eterna round: R95, input ligand: none) [nM]
1 | GAGGGCGAAAGCAACAUGAGGAUCACCCAUGUCCUCGGAGGGCAGGAUAUCCGGCGGUAGCCGAAGGAGAAGGGUCGGUAAACC [AK SSNG3-V2-33] (Eterna round: R96, puzzle: Same State NG 3) | 258 | 214 | 184 |  |  | 
2 | GAGUAGUUGGGAGGAUAUGCAUUGUUAUUAAAUGCAGAAGGUUUUAACAUGAGGAUCACCCAUGUAGGACUAUUCCUGUGUAUC [Parity 70 - Jieux - Same State NG 1] (Eterna round: R96, puzzle: Same State NG 1) | 17.3 | 13.7 | 17.1 |  |  | 
3 | GAGUGGAGGAGAGGAUAUACAAUGAUAAUCACAGUAGAAGGUUCUAACAUGAGGAUCACCCAUGUAGGACUAUUCCUGAGAGUU [Parity 50 - Jieux - Same State NG 1] (Eterna round: R96, puzzle: Same State NG 1) | 10.8 | 9.56 | 12.8 |  |  | 
4 | GAGUGGUGGAGAGGAUAUACAUUGUUAUUCACUGUAGAAGGUUCUAACAUGAGGAUCACCCAUGUAGGACUAUUCCUGUGUUUU [Parity 57 - Jieux - Same State NG 1] (Eterna round: R96, puzzle: Same State NG 1) |  | 9.37 |  |  |  | 
5 | GAUUCACAUGAGGAUCACCCAUGUCGUUUAAUGGGAGGAUAUACGUGGACCGUAGUCCGCGUAGAAGGCCUAAUUG [Mat - Same State 1 - Mod of JL - D24] (puzzle: Same State 1) |  |  |  | 74.4 |  | 
6 | GCAGAACAUGAGGAUCACCCAUGUCUCUAAUAUCGAGGAUAUGGGCAGGGUAUAUCCCAACCAGAAGGCGAACUGC [SS1 Teenbexe 14] (puzzle: Same State 1) |  |  |  | 140 | 51.7 | 205
7 | GCAGGAAGCAAAGGAUAUGGAAGAUUACUCAGUCCAGAAGGUUGCUUCUUGGAACAUGAGGAUCACCCAUGUCACCGUUACGGC [Eternabot solution 30] (Eterna round: R96, puzzle: Same State NG 1) | 15.8 | 19 | 14.5 |  |  | 
8 | GCCAUCGAGUGAGGAUAUGGCACCGUUUCGGUGCCAGAAGGCAUGUCAAUUGACAUGAGGAUCACCCAUGUAUUAUCGAUGGCA [JL Fiskers NG1ss - 33 mod 4] (Eterna round: R96, puzzle: Same State NG 1) | 75.4 | 556 | 835 |  |  | 
9 | GCCAUCGCAUGAGGAUAUGGCACCGAAACGGUGCCAGAAGGCAUGUCGAAAGACAUGAGGAUCACCCAUGUAGUAUAGAUGGCA [Mat - Same State NG 1 - JL mod - D93] (Eterna round: R96, puzzle: Same State NG 1) | 222 | 228 | 900 |  |  | 
10 | GCCAUCGCAUGAGGAUAUGGCACCGAAACGGUGCCAGAAGGCAUGUCGAAUGACAUGAGGAUCACCCAUGUAGUAUAGAUGGCA [Mat - Same State NG 1 - JL mod - D92] (Eterna round: R96, puzzle: Same State NG 1) | 52.9 | 571 | 628 |  |  | 
11 | GCGAAGAGGUAAGGAUAUGCAUGGCGGAGACAUGAGGAUCACCCAUGUUGGAGACGAAAUCUAGGGUAGAAGGUACCAGGACGC [AK SSNG2-V2-13] (Eterna round: R96, puzzle: Same State NG 2) | 41.5 | 64.6 | 72.9 |  |  | 
12 | GCGAGCGUACUUGCAACAUGAGGAUCACCCAUGUUAACUGGACAGGAUAUGGUACCGUUUCGGUACCAGAAGGGUUCAUCAUGU [JL SSNG3 3.67] (Eterna round: R96, puzzle: Same State NG 3) | 74.1 | 147 | 183 |  |  | 
13 | GCGAGCGUACUUGCUACAUGAGGAUCACCCAUGUUUAUUGGACAGGAUAUGGUACCGUUUCGGUACCAGAAGGGUUCAUCAUGU [JL SSNG3 3.70] (Eterna round: R96, puzzle: Same State NG 3) | 294 | 471 | 547 |  |  | 
14 | GCGAGCGUACUUGCUACAUGAGGAUCACCCAUGUUUUAUGGACAGGAUAUGGUACCGUUUCGGUACCAGAAGGGUUCACAUGUG [JL SSNG3 3.82] (Eterna round: R96, puzzle: Same State NG 3) | 133 | 186 | 254 |  |  | 
15 | GCGGACCUGACAUGAGGAUCACCCAUGUUGCGGAGACGCAAUGAGGAUAUCGAUGGGUUUCCCGUCGAGAAGGCAUAAAUCCGC [JL SSNG3 3.93 mod 3] (Eterna round: R96, puzzle: Same State NG 3) | 15.1 | 16 | 25.2 |  |  | 
